Experimental findings from patent publication US5001064A, “Phosphatidylinositol 4-kinase” (Washington University, priority 1988, dated 1991) are described below.

Substrate in this series: Nc1ncnc2c1ncn2[C@@H]1O[C@H](COP(=O)(O)OP(=O)(O)OP(=O)(O)O)[C@@H](O)[C@H]1O
The series is described as follows: PtdIns 4-kinase activity assay: kinetic parameters, specific activity, pH optimum. It is filed as biochemical, bovine. As to conditions: other: purified enzyme, pH 7.4 (Tris-HCl), double-reciprocal plot, 30.0 °C. The protocol:
PtdIns 4-kinase activity was assayed in 60 μl at 30° C. in 20 mM BisTris-HCl (pH 7.0), 10 mM MgCl2, 1.0% Triton X-100, 0.25 mg/ml phosphatidylinositol, and 150 μM ATP (1.25 μCi[-^32 P]ATP), unless otherwise noted. The reaction was terminated by the addition of 12 μl of cold HCl, 120 μl of cold methanol, 150 μl of chloroform, and 40 μl of H2 O. The extracted samples were centrifuged at 12,000 × g for 1 min. and the aqueous layer removed and discarded. When needed, the organic phase was washed with 40 μl of cold methanol and 40 μl of cold 1.0 N HCl, centrifuged at 12,000 × g, and the aqueous layer was removed. The organic phase was then dried under vacuum in a Savant speed-vac, resuspended in 40 μl of chloroform/methanol (2:1), and chromatographed on potassium oxalate-impregnated Silica Gel 60 thin layer chromatography plates (TLC). The solvent system used consisted of chloroform/methanol/ammonium hydroxide/water (51:39.6:3:8.4). […] The reaction product, phosphatidylinositol 4-phosphate, was visualized by autoradiography, and the corresponding area of the TLC plate was scraped and quantitated by Cherenkov counting. […]
In order to optimize the assay of this enzyme, the pH optimum for Ptdlns 4-kinase was determined. […]

B1: PtdIns 4-kinase (Bos taurus) (protein)
chain: MDETSPLVSPERAQPPDYTFPSGSSAHFPQVPGGAVRVAAAAGPVSSPPGSPGHDRERQPLLDRARGAAAQGQTQTVAAQAQALAAQAAAAAHAAQAHRERNEFPEDPEFEAVVRQAELAIERGIFPERIYQGSSGSYFVKDPQGKIIAVFKPKNEEPYGQLNPKWTKWLQKLCCPCCFGRDCLVLNQGYLSEAGASLVDQKLELNIVPRTKVVYLASETFNYSAIDRVKSRGKRLALEKVPKVGQRFNRIGLPPKVGSFQLFVESYKDADYWLRRFEAEPLPENTNRQLLLQFERLVVLDYIIRNTDRGNDNWLIKYDCPMDSSNSRDTDWVVVKEPVIKVAAIDNGLAFPLKHPDSWRAYPFYWAWLPQAKVPFSQEIKDLILPKISDPNFVKDLEEDLYELFKKDPGFDRGQFHKQIAVMRGQILNLTQALKDNKCPLHLVQMPPVIVETARSHQRSSSESYTQSFQSRKPFFSWW
notes: It constitutes the major PtdIns 4-kinase activity of bovine uteri; from tissue; host or cells: bovine uterus (acetone powder, purified over ammonium sulfate, Mono Q, S-Sepharose, Mono Q, Mono P and hydroxylapatite)
Usually Km stands for the concentration of substrate that gives half-maximal velocity. Take B1: the Km was determined as 18 µM.
